Source: IntAct's records for PubMed 17948050

B1: Mucosa-associated lymphoid tissue lymphoma translocation protein 1 (Homo sapiens), Q9UDY8 (parent)
chain: MSLLGDPLQALPPSAAPTGPLLAPPAGATLNRLREPLLRRLSELLDQAPEGRGWRRLAELAGSRGRLRLSCLDLEQCSLKVLEPEGSPSLCLLKLMGEKGCTVTELSDFLQAMEHTEVLQLLSPPGIKITVNPESKAVLAGQFVKLCCRATGHPFVQYQWFKMNKEIPNGNTSELIFNAVHVKDAGFYVCRVNNNFTFEFSQWSQLDVCDIPESFQRSVDGVSESKLQICVEPTSQKLMPGSTLVLQCVAVGSPIPHYQWFKNELPLTHETKKLYMVPYVDLEHQGTYWCHVYNDRDSQDSKKVEIIIGRTDEAVECTEDELNNLGHPDNKEQTTDQPLAKDKVALLIGNMNYREHPKLKAPLVDVYELTNLLRQLDFKVVSLLDLTEYEMRNAVDEFLLLLDKGVYGLLYYAGHGYENFGNSFMVPVDAPNPYRSENCLCVQNILKLMQEKETGLNVFLLDMCRKRNDYDDTIPILDALKVTANIVFGYATCQGAEAFEIQHSGLANGIFMKFLKDRLLEDKKITVLLDEVAEDMGKCHLTKGKQALEIRSSLSEKRALTDPIQGTEYSAESLVRNLQWAKAHELPESMCLKFDCGVQIQLGFAAEFSNVMIIYTSIVYKPPEIIMCDAYVTDFPLDLDIDPKDANKGTPEETGSYLVSKDLPKHCLYTRLSSLQKLKEHLVFTVCLSYQYSGLEDTVEDKQEVNVGKPLIAKLDMHRGLGRKTCFQTCLMSNGPYQSSAATSGGAGHYHSLQDPFHGVYHSHPGNPSNVTPADSCHCSRTPDAFISSFAHHASCHFSRSNVPVETTDEIPFSFSDRLRISEK

Variants of: B1
Details: with ubc_human UBC

effect of a mutation on the interaction	Variant
disrupting interaction	K644R;K648R;K661R;K665R;K677R;K679R;K702R;K709R;K714R;K724R;K824R
